Experimental data reported in the DeepSol protein solubility set.

Experiment: soluble on expression in E. coli; label from the status in PepcDB or PDB records

Sequence	soluble on expression in E. coli
MLIYISLIMKMERLSMVILELYQNDYSKDLVAFDSIEDGKAFVAQIPGYTLETEDGFEVEYFNPKNIPDYMEIIFNGNIVPLSKFMFDPEENVNIIWKEISNLSLKNDRVIEGYSKIDAYVVNNHEVKAYVETRETNYRKAKDFLESRGYEIDRSFFGSEDGEAILYRKKGIEVWHFLCHLDPMFVEIEDVEGYVKEEVGEIQ	not soluble
MLKGGEDVVQGTHVRELTPEWVARAVGGRLHPGGGPVRDLVWHSGAATPGSLFAVLPGRTTHGRHFIPEALARGASLVLADQAGPATLEVEDPWQALLRLGEALRRLFPGPVLAVGGSSGKTTTKEALAQGLGLPAPPGNLNTAPPLVRFFWHLDPQSPGAVVELGVDRQGEMAELFALAKPHLAVLTALGEEHLEAFGTLEKAVQEEAHLLRAPTALVGEQAAPLVLGLREDLLVYGFAEGTFRGRDLELGLRESRFRYGGLHVRVPYPGLGPAYGALAALAAAEVLGLSLEEVAERLARLTLPPGRMETREVGGVVFVNDAYNANPLSVKAGLRWLAAQPGRKWAVLGEMRELGRESLRLHLEVAEEAARLGLSPLYLGPHARHQAAFSGEAVESLEEALAWLKARVAPGDLVYLKASRAVGLERIVELWDAPFSS	soluble
MLKKNDIVEVEIVDLTHEGAGVAKVDGLVFFVENALPSEKILMRVLKVNKKIGFGKVEKYLVQSPHRNQDLDLAYLRSGIADLGHLSYPEQLKFKTKQVKDSLYKIAGIADVEVAETLGMEHPVKYRNKAQVPVRRVNGVLETGFFRKNSHNLMPLEDFFIQDPVIDQVVVALRDLLRRFDLKPYDEKEQSGLIRNLVVRRGHYSGQIMVVLVTTRPKVFRVDQLIEQVIKQFPEIVSVMQNINDQNTNAIFGKEWRTLYGQDYITDQMLGNDFQIAGPAFYQVNTEMAEKLYQTAIDFAELKKDDVIIDAYSGIGTIGLSVAKHVKEVYGVELIPEAVENSQKNASLNKITNAHYVCDTAENAMKKWLKEGIQPTVILVDPPRKGLTESFIKASAQTGADRIAYISCNVATMARDIKLYQELGYELKKVQPVDLFPQTHHVETVALLSKLDVDKHISVEIELDEMDLTSAESKATYAQIKEYVWNKFELKVSTLYIAQIKKKCGIELREHYNKSKKDKQIIPQCTPEKEEAIMDALRHFKMI	not soluble
MLKLASSLRTGLISRSIRTLAPTVNPAEQQQVQAVLPDKLYSSVEIEYRGHDKAVLKSYTSFLQQVCQHLEIPQGRLEVLPYIRWVQPALRSKFVHKKYKLHYETRTHISKLEILNVTGSTASTFLEYIQRNIPEGVGMRVGFTELQPLPLTIQKN	not soluble
MLKMIAFDFDGTLAPTIPMVIDVFRRSVAPYVEHELTKQAIVQTFGLNEVGMVKAVAGQRWPVALAAFYQEYARAHLRVSAPYPGIVTLLELLQQQGVALALITGKAAKSCQISLDVTGLTSYFPTRLYGSECQPNKADNLRQLMRTKSLDAAELFYVGDTRSDFEAADTAGVQCLTAAWDPNQPIVEAGDQIVFTSVEQLWAYLQRRLGHGLVRPMSHKPR	not soluble
MLKQSGKLRADATPAEVEQAVRDYLRQKAIHMPRGKGELYDKEAKRAEAMQDGQQTNGVLNGKGKKLGQSKTASVPSVKPEPWNGGKRVDRVLVLLIEYPDFPHNNIQPTETDMYYKDYTREHYEDMIFGGDDGYYDGPNGEKLISVKKYYEEQSGGSYSIEGKVAGWYQAKYPAKYYGGNVPAPDGNDANPRALVREALAAAAKDPSINLREFDQEDRYDLDGDGNYREPDGLIDHLMIIHSSVGEEAGGGSLGGAAIWSHRWNLGSVYRIPNTTTDVPYWRGQLAAYDYTIEPADGAAGVFAHEYGHDLGLPDEYDTIYSGLGEPIAYWSIMSSGSWAGRIPGTEPTGFSAWAKQFLQSTMPGSNWLSGTTVEWNEVTQNGVEVVLDEASTKGTNNDAVRINLLKKETVVTIPPSGAYAYFSGSGNNLDHTMSTTIDLTGASKATLAFDTWYAIEKDWDYGAVEVKPHGSNEWTTIQGNITTTNNPYGQNPGNGITGTSNGWVKAEFDLSAYAGQTIDLRFHYITDVAVSEAGWYFDNIQVTADGAAVLADGAEGDSSFVMTGFEKSNGKRYSDHYYLLEWRNHRGVDEGLAHILRGGRLLSYDPGLVVWYVDEGYDNNWTGVHPGEGFLGVVDADQHTLKWSGNTTASTRYQVHDAAFSLQKGASFRVAINGSQLIDNDTSPTPVFDDSRSYDNKGAVDAGRNVPNYGLKIRVIGESADRTAARVLIYR	not soluble
MLKSKKRLLNPDYLFVTQDESSFYLDSNRSKCWAIKGSKPIKFISGSKTKINIGGFYTENRDFYWYDLGIKKNTDSFLKSLIKLKKDIGRKIFLLLDRATWHKSKKAREFFQNNKYWLQILLFPPATPDRNPTEYCWKTTREELTSIKSFKNIKVLKEELDEFWEKHVFTHKMSHYLKWLEHHHHHH	not soluble
MLKVDGIDVFYGNIHALKGVSLEVNKGEIVTLIGANGAGKTTLLKTISGLLRPKNGDIVYEGASIAGKAAQTIVKQGISHVPEGRRVFANMTVEENLELGAFLRKDKEGIQQDFAKVFQLFPRLEERRKQLAGTLSGGEQQMLAIGRALMARPKLLLLDEPSMGLAPLLVKTIFRIIQEINESGTTILLVEQNAHMALSIAHRAYVLESGRVVLSGTASELQASEQVKQAYLGGH	soluble
MLLFLTIILILVGGCTPKTKEVVLKNRNYVVIKEGKPALSEEDIIKLSRSLYVNKVNRPEVLRALKSLLTKRESLKYAFYRMKLYENIIVPILRSYGLPEEFKYLPIVESMYNPFAVSRSGAAGIWQLMPQTARRYGLIVRKDYDERFDVVKSTHAAAKYLRDLLEEFKNLELVLAAYNCGENCIRRNVNYNFWKERRKLPKETQNYVPLFLATLLIAQNPEYYGIHLYEPSREIAIVKVGIPMSVEDFLIMYSMNESRFRDLNPHIRGRKIPKNANVYVEERKLVKGEYLLRARGREE	not soluble
MLLLSGFRYFRAVGVALLFLSVSLATVRADVRPETWQVVVDAGSSKTRGILYRLSADAVTPVVEYNSKLPLARYAGVPDESGNLLIAPLLDTLERLANDQKYALEKKTVLVNVLGTAGMRELSAGQQGVIYEAVKKSILAKGWALGQVGTIDGRDEGIFAWVHLNFLKGLATSDNTLGIIEMGGASSQITFALRSPPMDKADVSQNARTVMWDGKTYSVISESLLGLGADAARTAMNKVRPQDQRCYPQGALIMKVPTTGAFDFTACDLVYDEAIAANYQSEIKKLDAIVASSNYTQTDFVGLSSLYYTLNFFNNDLPERGTLKSALEQSCQRYADIEERLRQDDSKDKYQPENKCANGVFVYDLLYDYLQLGDGRLTALKKVENMDIRWTDGFLLLGKQAPLEHHHHHH	not soluble
MLLSLYIPPGRPLSDVMTLLRQEYSITDNIKLKRTRQAVKRALSAAMDRLQMLTSTPPNGLVLFCGEDMSTGKFECFMFSPPEPIRVFYYRTDKRFITDFLEDMVEDNNAIGIIIVERDQATIGLLKGARLEVLKELEGFVPGKHKMGGQSQRRYERIIEQMVDEFFKKVGEEASNLLVPLAEKGVLKGVIVAGPGLAKQEFVEGNYLDYRLKKILAPELVDVAYQGLQGLKEAVMKAEKVVEAQMYRDAVNAMEEFKLHLAKGTGMIVYGEKDVEAALEMGAVKTLLIHESREDLEEWVEKAKSSGAQVIVVPESLAEAEWFLKTFGGLAGILRFRISTV	soluble
MLLTLNALPFVLVNCGGKKKPAPPPKAAAKPMAAPAGGAGGAGGAGGAGKSDSFDSKKQDIPSSKKEEPVAPKKEDEGNYEELAIPQ	not soluble
MLLTNHAKERIAKRLAKKRKIYKIYSTLFSFLKNSIRIEVEDTILFTDGNKTLVATKLDGELLDLGDIVKRVKDIEESYECVFWDKKIAKITKPIKFLQEIPPGKYYFYINKEKKVLYIGTHEPLLALTFRPAKRWERALFYFSLEHHHHHH	not soluble
MLMPKRTKYRKQMKGRNRGKAHRGNSIAFGDIAIKAIEHGRIDSRQIESARVAMTRHIKRAGKVWIRVFPDKPLTAKPLETRMGKGKGSVEKWVMNIKPGRIVYEMLGIEEGLAREALALAQSKLPFKTKIVTCESENEIYLEHHHHHH	soluble
MLNDVYNKRIIELAGNIPRIGRLERPDASATAHSKLCGSTVTIDLKMDGDTVTDFAHIVKACALGQASSSIMASHVVGSTASELKALRETVRKMLKENGAPPDGKWADIAMLEPVRDYKARHASTLLTFDAVVDAIGQIEAQNDGAKATA	not soluble
MLNEGAKNTEKQKVMEIITVAEPMSESELESIRNFLFRIIRREFGFGYIPEYHRDIINLEEYYLKPPRNIFLFASQGGRVIGTLGLRAYDREFEGLNYDPETTASLWRVFVDEDHRRMGVASRLVEIAEKEAASLGYQRIYLHTHKYVGGALEFWLSRGYRVTVDTGNELGTVHMEKTLSCNSNAITRIPEKTSELSHSLPRTQKV	soluble
MLNGKNKSAVNRQRFLKRHKEQIKESVADAVNRRSITNTETGEDVSIPHKDINEPIFHQGKGGVRERVHPGNDQFITGDKIERPKGGGQGSGSGEGNASPDGEGQDEFVFQISKDEYLDILFEDLELPNLEKNQIAKITEWKTHRAGFQTAGIPSNISVIRSLQQSLARRTAMTAGKKRLLKELEDELTRIKNIEPAQQLEENRLKKEIEELRKKIENVPFIDTFDLRFKNYEKRPVPSSQAVMFCLMDVSGSMDQATKDIAKRFYVLLYLFLTRTYENVDVVFIRHHTQAKEVDEHEFFYSQETGGTIVSSALKLMDEIVKERYPVGQWNIYAAQASDGDNWADDSPRCRDLLVNKLLPNCQYYSYIEITRRSHQTLWHEYEKLTDEFPNFAMKNIRSVEDIFPVFRELFQKETALEHHHHHH	not soluble
MLNKVFIIGRLTGDPVITYLPSGTPVVEFTLAYNRRYKNQNGEFQEESHFFDVKAYGKMAEDWATRFSKGYLVLVEGRLSQEKWEKEGKKFSKVRIIAENVRLINRPKGAELQAEEEEEVPPIEEEIEKLGKEEEKPFTDEEDEIPF	soluble
MLNLCDEDFDAMELVEGALALNKAINPETQLEWAHIELARLLKEAELALVHERDEKARFEAFLRLFYQEWGFSGDREAYFDSRNAFIDQVLQRRKGIPVSLGSLLLYLGHKLGFPLNGISFPTQFLLSLNWSGERPIYLNPFNGEIVSQHTLQAWLVGHKGPLAKLKPQHLQSVDNPTIIGRWLALLKSALLREERYTLALRCTDLALTFVPDDPYEIRDRGFIYQQLQCHQIAISDYQYFIEHCPNDPAAELLKTQVNALSHDSQVTLHLEHHHHHH	soluble
MLNLSSNQAAAVTVSETAELPEALEQLGLSNSRPVLVIVGGASQTSEADFLRIQSLFVEVLAPIAQSLGAYVVDGGTDAGVMRLMGDARSQINGQFPLIGVAPTAKVILPNQTTILADDATPLEPHHSHFVLIPGSKWGDESPWIVKVATLLANGLPSITVLINGGEISFLEHHHHHH	soluble
MLNPNKWLDVKKMLPRLAQKQWYAKTRYGYARGGETVHFVQNVRRYYDILTWVTQPLEHHHHHH	not soluble
MLNYELELWEKGLLVAGVDEAGRGPLAGPVVAAAVILPPFTEPFIKGDSKKLTKKEREEAYEEIKNKALAVGTAVVDSAVIDRVNILRATKLAMKRALKDLKYHYDIVITDYVKLEGENCMPLVKGDEKSLNCACASIIAKVIRDKIMEIYHKIYPDFNFASNKGYPSKTHLEKVEKGEYTEIHRKSFSPLKKKLF	soluble
